Reference: article PMC10293011 (Nature Cancer, 2023)
Values belong to the binder of their own block, whether it stands above or below them. Non-standard residues stand in square brackets, D forms with d. No end group written: not given here. Phe(3,5-F2) = N[C@@H](Cc1cc(F)cc(F)c1)C(=O)O

Assays:
Settings in all cases: both partners purified
[1] = target: T1, TEAD2 (A217–D447), YAP-binding domain, His-tagged (human, UniProt Q15562 217-447); experiment: AlphaScreen or HTRF; site 2/site 3-specific HTRF: His-tagged TEAD preincubated 30 min with compounds in 50 mM HEPES pH 7.2, 100 mM NaCl, 0.01% Tween-20, 0.5 mg/ml bovine gamma globulin, 1 mM dithiothreitol; biotinylated probe added for 60 min; europium anti-His and streptavidin-XL665; room temperature
T1 construct: The construct has a TEV site after the His tag; The tag is kept in the TR-FRET/HTRF assays (anti-His detection); Treated with 2.5% hydroxylamine; source: E. coli BL21 (DE3), autoinduction, purified (hydroxylamine treated, size exclusion); not shown: His6, N-terminal, kept
T1 sequence (Q15562 217-447): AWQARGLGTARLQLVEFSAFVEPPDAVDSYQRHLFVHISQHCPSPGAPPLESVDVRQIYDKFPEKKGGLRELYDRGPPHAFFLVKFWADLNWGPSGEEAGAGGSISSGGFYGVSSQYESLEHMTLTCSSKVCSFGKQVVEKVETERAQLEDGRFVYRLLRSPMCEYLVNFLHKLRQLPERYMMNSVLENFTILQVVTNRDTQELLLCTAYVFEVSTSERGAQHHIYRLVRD

[2] = target: T1, TEAD2 (A217–D447), YAP-binding domain, …; experiment: 1D 19F NMR of the free peptides; 20 μM S2, 20 μM S3 and 10 μM TEAD2 in PBS (100% D2O), pH 7.4, 298 K; displacement by addition of 55 μM compound 2, GNE-7883 or pepYAP
[3] = target: T2, TEAD3 (Q216–D435), YAP-binding domain, His-tagged (human, UniProt Q99594 216-435); experiment: AlphaScreen or HTRF; TEAD–YAP TR-FRET: His-tagged TEAD (YAP-binding domain) with europium anti-His antibody, preincubated 30 min with small molecules; biotinylated YAP peptide (50–100) with streptavidin-XL665; 60 min, room temperature; read at 665 and 615 nm
T2 construct: The construct has a TEV site after the His tag; treated with 2.5% hydroxylamine; source: E. coli BL21 (DE3), autoinduction, purified (hydroxylamine treated, size exclusion); not shown: His6, N-terminal, kept
T2 sequence (Q99594 216-435): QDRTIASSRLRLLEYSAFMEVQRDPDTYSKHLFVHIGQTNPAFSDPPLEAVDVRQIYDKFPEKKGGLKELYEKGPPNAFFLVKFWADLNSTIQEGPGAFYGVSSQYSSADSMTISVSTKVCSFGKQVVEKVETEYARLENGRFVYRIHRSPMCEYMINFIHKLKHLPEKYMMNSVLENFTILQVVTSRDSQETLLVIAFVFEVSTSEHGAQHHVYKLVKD

B1: biotinylated mouse vestigial-like protein 1 peptide, amino acids 20–51 (site 2 probe) (peptide, UniProt Q99NC0 20-51, looked up)
peptide: KTEWNAGSVIFTYFEGDINSMVDEHFSRALRN
modifications: also: biotin, position not given here
notes: mouse vestigial-like protein 1 (Vgll1), amino acids 20–51; also called mVgll1; Vgll1 peptide
binding result [1]: binds

B2: pepYAP, YAP peptide (amino acids 60–100) (peptide)
peptide: DSETDLEALFNAVMNPKTANVPQTVPMRLRKLPDSFFKPPE
notes: source: synthetic peptide, bought: ABclonal
binding result [2]: binds

Next, values leading:

binding result [2]: binds
B3: S3, 19F-labeled YAP peptide (residues 80–100) (peptide)
peptide: Ac-VPQTVPMRLRKLPDS[Phe(3,5-F2)]FKPPE
modifications: not fully specified
notes: YAP residues 80–100; Phe95 is 3,5-difluoro-phenylalanine; also called peptide S3; source: synthetic peptide, bought: ABclonal

binding result [2]: binds
B4: S2, 19F-labeled YAP peptide (residues 59–81) (peptide)
peptide: Ac-GDSETDLEAL[Phe(3,5-F2)]NAVMNPKTANVP
modifications: not fully specified
notes: YAP residues 59–81; Phe69 is 3,5-difluoro-phenylalanine; also called peptide S2; source: synthetic peptide, bought: ABclonal

binding result [3]: binds
B5: biotinylated YAP peptide (amino acids 50–100) (peptide, UniProt P46937 50-100, looked up)
peptide: AGHQIVHVRGDSETDLEALFNAVMNPKTANVPQTVPMRLRKLPDSFFKPPE
modifications: biotin (position not given)
notes: YAP (Yes-associated protein), amino acids 50–100; Held by streptavidin-XL665 in the assay; also called YAP 50–100
